Measurements reported in the supplement of paper PMC9170038.

System: MS2 coat protein
Assay: apparent KD of MS2 coat protein; designed switch direction (-1 OFF switch, 1 ON switch): 1; higher = weaker reporter binding
In short: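 For each design, the apparent KD is the median over clusters of curves fitted to normalised cluster fluorescence. Clusters held RNA switches with common flanks, transcribed on Illumina chips by stalled E. coli RNA polymerase. These were titrated with SNAP-549-labelled MS2 coat protein, doubling from 0.7 or 1.5 nM to 3 µM, without input, with 200 uM small-molecule ligand, or with an oligonucleotide input.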

[1] = Eterna round: R95, input ligand: FMN 200 uM
[2] = Eterna round: R95, input ligand: microRNA oligo, concentration not stated
[3] = Eterna round: R95, input ligand: none
[4] = input ligand: microRNA oligo, concentration not stated

With “AUAAAACAUGAGGAUCACCCAUGUCAACAAAGUCGAGGAUAUGGGCAAAGAAAAUAAUAACCAGAAGGCGAAUAAU [salish99_ss1_r3_054] (puzzle: Same State 1)” as the sequence, how does the “apparent KD of MS2 coat protein” value [1] read?
Its value is 42.6 nM.

And the “apparent KD of MS2 coat protein” value [2]?
The value was 389 nM.

And the “apparent KD of MS2 coat protein” value [3]?
The value was 445 nM.

With “AUCCUACAUGAGGAUCACCCAUGUGACGCCUCAAUAGGAUAUCGGGCCCACAGUCAGGAACGAGAAGGAUUGAAGC [Digerier] (puzzle: Same State 1)” as the sequence, how does the “apparent KD of MS2 coat protein” value [1] read?
The value was 67.5 nM.

What about the “apparent KD of MS2 coat protein” value [2] of the same sequence?
The value was 29.3 nM.

What about the “apparent KD of MS2 coat protein” value [3] of the same sequence?
The value was 66.7 nM.

How did the “apparent KD of MS2 coat protein” value (input ligand: FMN 200 uM) turn out when “AAACAUGAGCGAGGAUAUGCGGAGGAUCACCCUGUAGAAGGCGCAUGUAAAACAACAUGAGGAUCACCCAUGUCAUGUACAUAA (Eterna round: R96, puzzle: Same State NG 1)” was run?
The value was 77.5 nM.

And the “apparent KD of MS2 coat protein” value [4]?
The value was 144 nM.

And the “apparent KD of MS2 coat protein” value (input ligand: none)?
Its value is 223 nM.

How did the “apparent KD of MS2 coat protein” value [4] turn out when “AUUAAUUAAUUAAUACAUGAGGAUCACCCAUGUAAUAAGAUCUAGGAUAUCAGCUCGUUUAGAGCUGAGAAGGAGAUCACAUGU [SSNG3/17-A3] (Eterna round: R96, puzzle: Same State NG 3)” was run?
The value was 32.7 nM.

Which “apparent KD of MS2 coat protein” value (input ligand: FMN 200 uM) does the source give for “AUUUGCGCUAUAGGAUAUGGCAGGGUGAACCAGCCAGAAGGAUAAGUAGGGAGGUGACAUGAGGAUCACCCAUGUAAUAAGGAA [Eternabot solution 6] (Eterna round: R96, puzzle: Same State NG 1)” here?
Its value is 330 nM.

And the “apparent KD of MS2 coat protein” value [4]?
Its value is 290 nM.

What about the “apparent KD of MS2 coat protein” value (input ligand: none) of the same sequence?
Its value is 378 nM.

“AUACUCAUGUAAGGAUAUGCAGCCGAAACGGCUGCAGAAGGUACUAUAAUACAUGAGGAUCACCCAUGUCUCUAUUAUUUAGUU [Mat - Same State NG 1 - JL mod - D98] (Eterna round: R96, puzzle: Same State NG 1)” was tested. Which “apparent KD of MS2 coat protein” value (input ligand: FMN 200 uM) did it give?
Its value is 89.5 nM.

And the “apparent KD of MS2 coat protein” value [4]?
The value was 46.5 nM.

And the “apparent KD of MS2 coat protein” value (input ligand: none)?
Its value is 101 nM.

What does the source list for “AGUCCAGCCUGAGCUGGACAAAAGCAUGUACAUGAGGAUCACCCAUGUCAUGUAUAAGCUUUUUGCUCGUCUUAAUA [Zipper 49 - 11] (puzzle: Sensor for hsa-mir-208a)”?
apparent KD of MS2 coat protein [1]: 24 nM; apparent KD of MS2 coat protein [2]: 11 nM; apparent KD of MS2 coat protein [3]: 21.3 nM

With “GUAGCAUACCGAGGAUAUUCAUAUUACAUGAGGAUCACCCAUGUUUUAGGCCGAUUACGGCCUUGGGAGAAGGCGGAAUGCUAC [Xeonanis - 20 Mod23] (Eterna round: R96, puzzle: Same State NG 2)” as the sequence, how does the “apparent KD of MS2 coat protein” value (input ligand: FMN 200 uM) read?
The value was 13.8 nM.

And the “apparent KD of MS2 coat protein” value [4]?
The value was 20.1 nM.

What about the “apparent KD of MS2 coat protein” value (input ligand: none) of the same sequence?
The value was 28.8 nM.

With “CGACCAAUUGUUUAAUAAACAUGAGGAUCACCCAUGUUUCGUGAGGAUAUCUAGGGUGAAGCACGGGAGAAGGCACUACGGUCA [Eternabot solution 21] (Eterna round: R96, puzzle: Same State NG 3)” as the sequence, how does the “apparent KD of MS2 coat protein” value (input ligand: FMN 200 uM) read?
The value was 142 nM.

And the “apparent KD of MS2 coat protein” value [4]?
The value was 120 nM.

What about the “apparent KD of MS2 coat protein” value (input ligand: none) of the same sequence?
The value was 134 nM.

With “CCGUUCAAUAAACAUGAGGAUCACCCAUGUAAUAAUAAGGGUGAGGAUAUGCAUCUGAAACAGGUGCAGAAGGCAUAAGAGCGG [JL SSNG3 3.90] (Eterna round: R96, puzzle: Same State NG 3)” as the sequence, how does the “apparent KD of MS2 coat protein” value (input ligand: FMN 200 uM) read?
The value was 487 nM.

What about the “apparent KD of MS2 coat protein” value [4] of the same sequence?
The value was 289 nM.

And the “apparent KD of MS2 coat protein” value (input ligand: none)?
The value was 585 nM.

Which “apparent KD of MS2 coat protein” value (input ligand: FMN 200 uM) does the source give for “GUUAGGAAUCUAGCUGACAUGAGGAUCACCCAUGUUAGUGGGAAGGAUAUGGUACAGAAACUGUACCAGAAGGUCUUACUGUCU [MOD Omei's SS(NG) 3 AV9] (Eterna round: R96, puzzle: Same State NG 3)” here?
The value was 23.8 nM.

What about the “apparent KD of MS2 coat protein” value [4] of the same sequence?
Its value is 21.4 nM.

What about the “apparent KD of MS2 coat protein” value (input ligand: none) of the same sequence?
The value was 25.9 nM.

Which “apparent KD of MS2 coat protein” value (input ligand: FMN 200 uM) does the source give for “CUGAGCAAGCAAGGAUAUCACGUCGAUUAGACGUGAGAAGGUGCUCCUUACAUGAGGAUCACCCAUGUAUAACAUGAAGCUCAG [SSNG1/10-A2] (Eterna round: R96, puzzle: Same State NG 1)” here?
The value was 190 nM.

What about the “apparent KD of MS2 coat protein” value [4] of the same sequence?
Its value is 902 nM.

What about the “apparent KD of MS2 coat protein” value (input ligand: none) of the same sequence?
Its value is 1090 nM.
